In PMC4428629, “The Structure of an NDR/LATS Kinase–Mob Complex Reveals a Novel Kinase–Coactivator System and Substrate Docking Mechanism” (PLoS Biology, 2015):
Residues, ends and D or L forms follow the SMILES beside them. No end group written: not given here. carboxyfluorescein = carboxyfluorescein label

Assays:
Cbk1–Mob2 = test: In vitro pulldown of Cbk1–Mob2; assay type: binding, Saccharomyces cerevisiae
Procedure: Cbk1 substrates containing the docking motifs or substrate sites were bacterially expressed as MBP or GST fusions. For pulldown assays, MBP-fusion lysates were incubated with amylose resin (New England Biolabs) on ice for 15 min, followed by washing with PBS (137 mM NaCl, 2.7 mM KCl, 4.3 mM Na2HPO4, 1.4 mM KH2PO4 [pH 7.3]). GST fusions were purified on glutathione Sepharose beads followed by dialysis into Cbk1 buffer.
MBP fusions were incubated on bead with 1 μM purified Cbk1 on ice for 15 min. Samples were washed 3× with PBS (transferred to fresh tube on last wash), resuspended in SDS-PAGE buffer, and separated by SDS-PAGE. Samples were directly visualized with GelCode Blue (Pierce) or transferred to PVDF membrane for immunoblotting. Cbk1 was detected using His or pS570 primary antibodies. For experiments detected using α-pS570, antibody signal with pure protein was analyzed to control for lot-dependent variations in expression as well as variations between Cbk1 mutants (no variations detected).

Cbk1^251-756-Mob2 = target: T1, Cbk1^251-756-Mob2 (Saccharomyces cerevisiae, UniProt P43563+P53894); test: FP direct titration, Cbk1^251-756-Mob2 (WT); assay type: binding; details: CF-labeled peptide 20 nM, Tris pH 8.0, triplicate, read-out: peptide binding affinity (table in Fig 5C)
T1 construct: His6-Cbk1^251–756 was co-expressed with GST-Mob2 (full length or 45–287); His6 (N); made in house
T1 sequence (P53894 251-756): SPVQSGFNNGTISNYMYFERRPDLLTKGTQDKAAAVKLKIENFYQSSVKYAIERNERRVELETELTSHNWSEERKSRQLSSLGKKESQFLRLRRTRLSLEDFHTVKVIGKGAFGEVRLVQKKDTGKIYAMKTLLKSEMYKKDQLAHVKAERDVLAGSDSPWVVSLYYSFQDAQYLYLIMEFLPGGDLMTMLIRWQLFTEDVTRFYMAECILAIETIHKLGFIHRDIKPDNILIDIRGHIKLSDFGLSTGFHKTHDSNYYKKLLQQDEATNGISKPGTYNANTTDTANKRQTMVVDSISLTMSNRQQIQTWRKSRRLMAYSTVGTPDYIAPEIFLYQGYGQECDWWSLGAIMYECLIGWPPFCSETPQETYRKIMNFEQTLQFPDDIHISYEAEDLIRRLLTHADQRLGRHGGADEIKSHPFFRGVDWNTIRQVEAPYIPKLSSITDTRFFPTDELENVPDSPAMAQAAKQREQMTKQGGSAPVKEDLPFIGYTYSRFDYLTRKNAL
T1 sequence (P43563 1-287 partner): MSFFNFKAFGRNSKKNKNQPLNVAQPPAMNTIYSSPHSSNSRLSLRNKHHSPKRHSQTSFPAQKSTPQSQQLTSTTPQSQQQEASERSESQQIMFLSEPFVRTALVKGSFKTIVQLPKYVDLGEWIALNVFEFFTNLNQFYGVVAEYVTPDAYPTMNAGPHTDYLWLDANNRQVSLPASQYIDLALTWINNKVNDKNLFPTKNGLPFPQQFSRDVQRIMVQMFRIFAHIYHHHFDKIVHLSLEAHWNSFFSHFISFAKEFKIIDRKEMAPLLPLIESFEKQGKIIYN
Procedure: His6-Cbk1^251–756 was co-expressed with GST-Mob2 (full length or 45–287). Cbk1 kinase domain alone (352–756 or 352–692) was expressed as GST-Cbk1-His6. All constructs were bacterially expressed and purified on a Ni-NTA resin (Qiagen) followed by glutathione Sepharose beads (GE Biosciences). For crystallization, tags were cleaved with TEV protease followed by cation exchange chromatography on a Resource S column. All Cbk1 preparations were subsequently dialyzed into Cbk1 buffer (20 mM Tris-HCl, 150 mM NaCl, 2 mM DTT [pH 8.0]).
For FP-based binding affinity measurements, different docking peptides (pepAce2: GSGSIIVTTNSANGGYQFP; pepSSD1: TTEQSDFKFP; pepHM: IGYTYSRFDY; pepHM-P: IGYpTYSRFDY) were N-terminally (pepAce2 and pepSSD1) or C-terminally (pepHM and pepHM-P) labeled with carboxyfluorescein (CF) fluorescent dyes.
Change in the FP signal in direct binding affinity measurements was monitored as a function of increasing concentration of protein with a Synergy H4 (BioTek Instruments) plate reader in 384-well plates. The labeled peptides were at 20 nM in 20 mM Tris (pH 8.0), 100 mM NaCl, 0.05% Brij35P, 2 mM DTT. The resulting binding isotherms were fit to a quadratic binding equation. The affinity of the unlabeled peptides was measured in steady-state competition experiments: 20 nM labeled reporter was mixed with protein samples in a concentration to achieve ~60%–80% complex formation. Subsequently, increasing amounts of unlabeled peptide were added, and the FP signal was measured as described earlier for direct titration experiments. The Kd for each unlabeled peptide interaction was determined by fitting the data to a competition binding equation. Titration experiments were carried out in triplicate, and the average FP signal was used for fitting the data with OriginPro 7.

Cbk1(W444A)–Mob2 complex = Cbk1(W444A)–Mob2 complex (S. cerevisiae, UniProt P53894 251-756; P43563 1-287, W444A); test: FP
Chain of Cbk1(W444A)–Mob2 complex (P53894 251-756 W444A, chain 1 of 2, one chain of several): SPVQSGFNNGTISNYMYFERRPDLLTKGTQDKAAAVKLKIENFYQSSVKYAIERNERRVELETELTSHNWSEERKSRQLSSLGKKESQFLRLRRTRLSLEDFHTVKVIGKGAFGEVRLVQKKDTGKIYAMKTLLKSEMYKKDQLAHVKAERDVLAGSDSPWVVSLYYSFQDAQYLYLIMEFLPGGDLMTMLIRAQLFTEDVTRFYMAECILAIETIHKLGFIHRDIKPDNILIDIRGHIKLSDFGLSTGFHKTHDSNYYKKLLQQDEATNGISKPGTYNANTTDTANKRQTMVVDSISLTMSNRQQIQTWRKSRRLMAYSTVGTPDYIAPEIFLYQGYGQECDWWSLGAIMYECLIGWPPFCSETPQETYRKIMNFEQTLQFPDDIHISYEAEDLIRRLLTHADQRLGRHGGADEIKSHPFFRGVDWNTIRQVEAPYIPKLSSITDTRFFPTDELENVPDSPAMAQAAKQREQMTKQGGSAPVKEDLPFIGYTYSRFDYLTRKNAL

[1] = target: T2, Cbk1^251–756–Mob2 complex (S. cerevisiae, UniProt P53894 251-756; P43563 1-287); test: FP
T2 chain 1: T1 sequence (P53894 251-756)
T2 chain 2: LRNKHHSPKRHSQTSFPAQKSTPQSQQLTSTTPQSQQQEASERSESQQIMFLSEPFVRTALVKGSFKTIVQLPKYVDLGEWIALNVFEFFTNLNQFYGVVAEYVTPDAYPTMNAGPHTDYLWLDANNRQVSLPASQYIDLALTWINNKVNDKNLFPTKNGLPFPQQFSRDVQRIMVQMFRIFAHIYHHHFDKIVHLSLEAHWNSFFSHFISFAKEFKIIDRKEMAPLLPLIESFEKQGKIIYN

Cbk1(F699A)–Mob2 complex = Cbk1(F699A)–Mob2 complex (S. cerevisiae, UniProt P53894 251-756; P43563 1-287, F699A); test: FP
[2] = tested on: budding yeast cell separation (RAM network output); test: Cell separation assay (cells per group); assay type: cell-based, Saccharomyces cerevisiae; details: cbk1-as2 strain
Procedure: For cell separation assays, ckb1Δ, ace2ΔCBK1, or ace2Δcbk1-as2 cells were transformed with empty, WT, or mutant vector under control of the ADH1 promoter. Cells were grown to log-phase, briefly sonicated, and mounted on slides to count cell group size. Histograms represent mean ± standard deviation of three independent cultures, with >100 groups counted for each. For quantification of transcriptional output, RNA was isolated from log-phase cultures and analyzed by real-time PCR. Bar graphs represent mean ± standard deviation of three independent cultures. For growth assays, WT CBK1 or cbk1-as2 strains were transformed with vectors containing Ssd1 (WT and mutants) expressed from a galactose-inducible promoter. Stationary phase cells grown in glucose were diluted to OD600 = 0.2. Five-fold serial dilutions (5^−2, 5^−3, 5^−4, 5^−5) were plated in the presence of glucose or galactose, then incubated for 3 d at 24°C.
(§1) Supplementary file pbio.1002146.s001.xlsx: S1 Data Measurements of the distances between the centers of mass of indicated Cbk1 and Mob2 regions over the course of the molecular dynamics simulations described in Figs 3 and S4. This file also contains data quantifying the effectiveness of cell separation in different genetic backgrounds. In these experiments we counted the number of cells present in clumps of specific sizes in random microscope fields, and then binned these groups into clump size ranges: 1–4 cells, 5–10 cells, 11–20 cells, and ≥21 cells per clump. We quantified this for the indicated allele combinations, scoring three independent isolates of each allele combination. The number of cell bodies present in clumps of different sizes is a function of the efficiency of cell separation. (XLSX) Click here for additional data file.
as §1, with “pbio.1002146.s004.xlsx: S4” for “pbio.1002146.s001.xlsx: S1”, “Data” for “Measurements of the distances between the centers of mass of indicated Cbk1 and Mob2 regions over the course of the molecular dynamics simulations described in Figs 3 and S4. This file also contains data”, “1–2 cells, 3–4” for “1–4”

[3] = tested on: budding yeast cell separation (RAM network output); test: Cell separation assay (cells per group); assay type: cell-based, Saccharomyces cerevisiae; details: cbk1-as2 strain; remark: listed apart in the source

In the case of “15-amino-acid peptide from Ace2: 15-amino-acid peptide from Ace2 with the sequence YQFP at its C-terminal end (IIVTTNSANGGYQFP; also: MBP fusion, end not given here)”, the “association with Cbk1–Mob2” value (Cbk1–Mob2; in vitro binding (Figs 4B, S5A, S5E)) is reported as “associates with the Cbk1–Mob2 complex”.

For `C[C@@H](O)[C@H](N)C(=O)N[C@H](C(=O)N[C@@H](CCC(=O)O)C(=O)N[C@@H](CCC(N)=O)C(=O)N[C@@H](CO)C(=O)N[C@@H](CC(=O)O)C(=O)N[C@@H](Cc1ccccc1)C(=O)N[C@@H](CCCCN)C(=O)N[C@@H](Cc1ccccc1)C(=O)N1CCC[C@H]1C(=O)O)[C@@H](C)O` [pepSSD1] (H-TTEQSDFKFP-OH), the Kd (Cbk1^251-756-Mob2) was 6 µM.

For “Ssd1^208–214: Ssd1 docking fragment used for Cbk1 pulldown (QSDFKFP; UniProt P24276 208-214, looked up, fragment)”, the Cbk1 pulldown (Cbk1–Mob2; Cbk1 F699A mutant (Fig 5B)) was “not nearby F699A abrogate Cbk1 pulldown” and the Cbk1 pulldown (Cbk1–Mob2; Cbk1 Y687A mutant (Fig 5B)) was “abrogate Cbk1 pulldown”.

For carboxyfluorescein-GSGSIIVTTNSANGGYQFP [pepAce2, carboxyfluorescein-labelled], the Kd (Cbk1(W444A)–Mob2 complex) was 19 µM, the Kd [1] was 5 µM and the Kd (Cbk1(F699A)–Mob2 complex) was 5 µM.

B1: Ace2 WT (protein, UniProt P21192 1-770, looked up)
Metallothionein expression …: MDNVVDPWYINPSGFAKDTQDEEYVQHHDNVNPTIPPPDNYILNNENDDGLDNLLGMDYYNIDDLLTQELRDLDIPLVPSPKTGDGSSDKKNIDRTWNLGDENNKVSHYSKKSMSSHKRGLSGTAIFGFLGHNKTLSISSLQQSILNMSKDPQPMELINELGNHNTVKNNNDDFDHIRENDGENSYLSQVLLKQQEELRIALEKQKEVNEKLEKQLRDNQIQQEKLRKVLEEQEEVAQKLVSGATNSNSKPGSPVILKTPAMQNGRMKDNAIIVTTNSANGGYQFPPPTLISPRMSNTSINGSPSRKYHRQRYPNKSPESNGLNLFSSNSGYLRDSELLSFSPQNYNLNLDGLTYNDHNNTSDKNNNDKKNSTGDNIFRLFEKTSPGGLSISPRINGNSLRSPFLVGTDKSRDDRYAAGTFTPRTQLSPIHKKRESVVSTVSTISQLQDDTEPIHMRNTQNPTLRNANALASSSVLPPIPGSSNNTPIKNSLPQKHVFQHTPVKAPPKNGSNLAPLLNAPDLTDHQLEIKTPIRNNSHCEVESYPQVPPVTHDIHKSPTLHSTSPLPDEIIPRTTPMKITKKPTTLPPGTIDQYVKELPDKLFECLYPNCNKVFKRRYNIRSHIQTHLQDRPYSCDFPGCTKAFVRNHDLIRHKISHNAKKYICPCGKRFNREDALMVHRSRMICTGGKKLEHSINKKLTSPKKSLLDSPHDTSPVKETIARDKDGSVLMKMEEQLRDDMRKHGLLDPPPSTAAHEQNSNRTLSNETDAL
For B1, the “Cells per group, bin 2 (1-2), %” value ([2]; Isolate 1) was 76.6187%, the “Cells per group, bin 10 (5-10), %” value ([2]; Isolate 1) was 5.7554% and the “Cells per group, bin 20 (11-20), %” value ([2]; Isolate 1) was 0.7194%. The “Cells per group, bin More (20+), %” value ([2]; Isolate 1) was 0%, the “Cells per group, bin 10 (5-10), Frequency” value ([2]; Isolate 1, count) was 16 and the “Cells per group, bin 20 (11-20), Frequency” value ([2]; Isolate 1, count) was 2. For the same molecule, the “Cells per group, bin More (20+), Frequency” value ([2]; Isolate 1, count) was 0, the “Cells per group, bin 2 (1-2), %” value ([2]; Isolate 2) was 92.7273% and the “Cells per group, bin 4 (3-4), %” value ([2]; Isolate 2) was 6.545%. The “Cells per group, bin 10 (5-10), %” value ([2]; Isolate 2) was 0.7273%, the “Cells per group, bin 20 (11-20), %” value ([2]; Isolate 2) was 0% and the “Cells per group, bin More (20+), %” value ([2]; Isolate 2) was 0%. The “Cells per group, bin 2 (1-2), Frequency” value ([2]; Isolate 2, count) was 255, the “Cells per group, bin 10 (5-10), Frequency” value ([2]; Isolate 2, count) was 2 and the “Cells per group, bin 20 (11-20), Frequency” value ([2]; Isolate 2, count) was 0. For the same molecule, the “Cells per group, bin More (20+), Frequency” value ([2]; Isolate 2, count) was 0, the “Cells per group, bin 4 (3-4), %” value ([2]; Isolate 3) was 1.579% and the “Cells per group, bin 10 (5-10), %” value ([2]; Isolate 3) was 0.5263%. For the same molecule, the “Cells per group, bin 20 (11-20), %” value ([2]; Isolate 3) was 0.5263%, the “Cells per group, bin More (20+), %” value ([2]; Isolate 3) was 0% and the “Cells per group, bin 2 (1-2), Frequency” value ([2]; Isolate 3, count) was 185. For the same molecule, the “Cells per group, bin 4 (3-4), Frequency” value ([2]; Isolate 3, count) was 3, the “Cells per group, bin 10 (5-10), Frequency” value ([2]; Isolate 3, count) was 1 and the “Cells per group, bin 20 (11-20), Frequency” value ([2]; Isolate 3, count) was 1. For the same molecule, the “Cells per group, bin More (20+), Frequency” value ([2]; Isolate 3, count) was 0, the “Cells per group, 1-2, Mean” value ([2]; mean of 3 isolates) was 88.9048% and the “Cells per group, 3-4, Mean” value ([2]; mean of 3 isolates) was 8.344%. For the same molecule, the “Cells per group, 5-10, Mean” value ([2]; mean of 3 isolates) was 2.336%, the “Cells per group, 11-20, Mean” value ([2]; mean of 3 isolates) was 0.4152% and the “Cells per group, 20+, Mean” value ([2]; mean of 3 isolates) was 0%. For the same molecule, the “Cells per group, bin 4 (3-4), %” value ([3]; Isolate 1) was 16.9065%, the “Cells per group, bin 2 (1-2), Frequency” value ([3]; Isolate 1, count) was 213 and the “Cells per group, bin 4 (3-4), Frequency” value ([3]; Isolate 1, count) was 47. The “Cells per group, bin 4 (3-4), Frequency” value ([3]; Isolate 2, count) was 18 and the “Cells per group, bin 2 (1-2), %” value ([3]; Isolate 3) was 97.3684%.
